Laboratory results from article PMC5496667.

Target: GFP-tagged Tubulin (fusion construct of Tubulin and GFP)
Experiment: FRET or BRET

B1: DsRed-tagged Ccdc181 (FACS-FRET construct) (natural protein)
chain: MDEDKDIDSKESGEYEDDFEKDLEWLINDKEKSNGSTIEMACKKEDDLDQVLKENETETELGQQLSDPDNSPKDEALPRRNDFISVPSIQPLDPISDSDSENSFQDSKPENQKDLEDEEDEEVRRYIMEKIIEANKLLQTQEPVNDKRERKLKFKDKLVDLEVPPLEDSDTCKALLENETNMSGKLSQLCISGDLEQESVLVSVTDGSCEENDRKILVERDGKFELMNLQDIESQGFLPPISSANSVEHESSQLPLRAPNPSVGGIKKEESEAKGHVLPISPAGEPLAQVPQLLPNPKNRPSSAANPDVTKKARRSNHRIQSAGVSPVTSTYCLSPRQKELQKQLERKREKLKREEEQRKLEEENEKKKENEMVFKAWLQKKREQVIEMRRVQRAKQIEDMSSRQVNRDPQQAFRLWLKKKHEEQMKERKTEELRKQEECLFFLRGTEGRERAFRQWLRRKQIEKIAEQQAVKERARQLRLEARRSKQLQSSLYSIPEAKAFRFTDHYN
B1 was tested, and the percent FRET positive cells was 29.4%.
